Test results taken from US7462599.

Key:
[1] = target: T1, H-Gln-His-Tyr-Phe-NH2
T1 chain: QHYF

[2] = target: T2, Gln^3-Aβ(3-11)a
T2 chain: QFRHDSGYE

[3] = target: T3, H-Gln-Ala-OH
T3 chain: QA

[4] = target: T4, H-Gln-Glu-OH
T4 chain: QE

[5] = target: T5, H-Gln-Ser-Tyr-Phe-NH2
T5 chain: QSYF

[6] = target: T6, [Gln^1]-GnRH
T6 chain: QHWSYGLRPG

[7] = target: T7, H-Gln-Asn-Gly-Ile-NH2
T7 chain: QNGI

[8] = target: T8, H-βhomoGln-Phe-Lys-Arg-Leu-Ala-NH2
T8 chain: QFKRLA

[9] = target: T9, H-Gln-cyclo(Nε-Lys-Arg-Pro-Ala-Gly-Phe)
T9 chain: QKRPAGF

[10] = target: T10, H-Gln-Glu-Ala-Ala-NH2
T10 chain: QEAA

[11] = target: T11, H-Gln-Glu-Tyr-NH2
T11 chain: QEY

[12] = target: T12, H-Gln-Ala-Ala-Ala-Ala-NH2
T12 chain: QAAAA

[13] = target: T13, H-Gln-Val-OH
T13 chain: QV

[14] = target: T14, H-Gln-Tyr-OH
T14 chain: QY

[15] = target: T15, H-Gln-Glu-Tyr-Ala-NH2
T15 chain: QEYA

[16] = target: T16, H-Gln-Gln-OH
T16 chain: QQ

[17] = target: T17, H-Gln-Pro-Tyr-Phe-NH2
T17 chain: QPYF

[18] = target: T18, H-Gln-Gly-Pro-OH
T18 chain: QGP

[19] = target: T19, H-Gln-Arg-Gly-Ile-NH2
T19 chain: QRGI

[20] = target: T20, H-Gln-Arg-Tyr-Phe-NH2
T20 chain: QRYF

[21] = target: T21, H-Gln-Ala-NH2
T21 chain: QA

[22] = target: T22, H-Gln-Trp-Ala-NH2
T22 chain: QWA

[23] = target: T23, H-Gln-Ala-Ala-Ser-Ala-Ala-NH2
T23 chain: QAASAA

[24] = target: T24, H-Gln-Tyr-Ala-OH
T24 chain: QYA

[25] = target: T25, H-Gln-Glu-Ala-Phe-NH2
T25 chain: QEAF

[26] = target: T26, [Gln^5]-substance P(5-11)
T26 chain: QQFFGLM

[27] = target: T27, H-Gln-Gln-Tyr-Phe-NH2
T27 chain: QQYF

[28] = target: T28, H-Gln-Gly-OH
T28 chain: QG

[29] = target: T29, H-Gln-Glu-Tyr-Phe-NH2
T29 chain: QEYF

[30] = target: T30, H-Gln-Glu-Asp-Leu-NH2
T30 chain: QEDL

[31] = target: T31, H-Gln-Lys-Arg-Leu-NH2
T31 chain: QKRL

[32] = target: T32, H-Gln-Phe-Ala-NH2
T32 chain: QFA

B1: recombinant human glutaminyl cyclase (QC, EC 2.3.2.5) (protein)
chain: VSPSASAWPEEKNYHQPAILNSSALRQIAEGTSISEMWQNDLQPLLIERYPGSPGSYAARQHIMQRIQRLQADWVLEIDTFLSQTPYGYRSFSNIISTLNPTAKRHLVLACHYDSKYFSHWNNRVFVGATDSAVPCAMMLELARALDKKLLSLKTVSDSKPDLSLQLIFFDGEEAFLHWSPQDSLYGSRHLAAKMASTPHPPGARGTSQLHGMDLLVLLDLIGAPNPTFPNFFPNSARWFERLQAIEHELHELGLLKDHSLEGRYFQNYSYGGVIQDDHIPFLRRGVPVLHLIPSPFPEVWHTMDDNEENLDESTIDNLNKILQVFVLEYLHL
For B1, the KM (substrate conversion by QC) [1] was 68 µM, the KM (buffer containing 1% DMSO) [2] was 155 µM and the KM (0.05 M Tris-HCl, pH 8.0) [3] was 0.269 mM. For the same protein, the KM (0.05 M Tris-HCl, pH 8.0, 0.5 M KCl) [3] was 0.357 mM, the KM (substrate conversion by QC) [3] was 232 µM and the KM (0.05 M Tris-HCl, pH 8.0) [4] was 0.373 mM. It also gave a KM (0.05 M Tris-HCl, pH 8.0, 0.5 M KCl) [4] of 0.607 mM, a KM (substrate conversion by QC) [4] of 359 µM and a KM (substrate conversion by QC) [5] of 55 µM. The KM (substrate conversion by QC) [6] was 53 µM, the KM (substrate conversion by QC) [7] was 172 µM and the “KM (substrate conversion by QC)” value [8] was “KM=2.5±0.2 mM”. The “KM (substrate conversion by QC)” value [9] was “KM-values of 240±14 µM and 133±5 µM for human and papaya QC, respectively”, the KM (substrate conversion by QC) [10] was 77 µM and the KM (substrate conversion by QC) [11] was 79 µM. The KM (substrate conversion by QC) [12] was 65 µM, the KM (substrate conversion by QC) [13] was 196 µM and the KM (substrate conversion by QC) [14] was 211 µM. For the same protein, the KM (substrate conversion by QC) [15] was 69 µM, the KM (substrate conversion by QC) [16] was 148 µM and the KM (substrate conversion by QC) [17] was 1890 µM. The KM (substrate conversion by QC) [18] was 130 µM, the KM (0.05 M Tris-HCl, pH 8.0) [19] was 0.166 mM and the KM (0.05 M Tris-HCl, pH 8.0, 0.5 M KCl) [19] was 0.091 mM. The KM (substrate conversion by QC) [19] was 143 µM, the KM (substrate conversion by QC) [20] was 55 µM and the KM (substrate conversion by QC) [21] was 155 µM. It also gave a KM (0.05 M Tris-HCl, pH 8.0) [22] of 0.054 mM, a KM (0.05 M Tris-HCl, pH 8.0, 0.5 M KCl) [22] of 0.056 mM and a KM (substrate conversion by QC) [22] of 50 µM. The KM (substrate conversion by QC) [23] was 79 µM, the KM (substrate conversion by QC) [24] was 101 µM and the KM (substrate conversion by QC) [25] was 39 µM. For the same protein, the “substrate conversion, determined qualitatively by MALDI-TOF” value [26] was “*”, the KM (substrate conversion by QC) [27] was 41 µM and the KM (substrate conversion by QC) [28] was 247 µM. It also gave a KM (substrate conversion by QC) [29] of 47 µM, a KM (0.05 M Tris-HCl, pH 8.0) [30] of 0.06 mM and a KM (0.05 M Tris-HCl, pH 8.0, 0.5 M KCl) [30] of 0.061 mM. For the same protein, the KM (substrate conversion by QC) [30] was 55 µM, the KM (0.05 M Tris-HCl, pH 8.0) [31] was 0.051 mM and the KM (0.05 M Tris-HCl, pH 8.0, 0.5 M KCl) [31] was 0.034 mM. It also gave a KM (substrate conversion by QC) [31] of 54 µM and a KM (substrate conversion by QC) [32] of 69 µM.
